Results reported in US20250195677A1 (CEPHALON, published 2025).

Experiments:
[1] = target: human PD-1 on Jurkat Effector cells (Promega PD-1/PD-L1 blockade bioassay) (human, UniProt Q15116 25-288); test: cell-based or functional assay
[2] = target: T1, human PD-1 (amino acids 1-185) stably expressed on Jurkat cells (human, UniProt Q15116 21-185); test: flow cytometry, Jurkat+hPD-1
T1 construct: extracellular domain and a portion of the transmembrane domain, on cells; also called hPD-1; Jurkat+hPD-1 cell line
T1 sequence (Q15116 21-185 limits assumed, form in doubt): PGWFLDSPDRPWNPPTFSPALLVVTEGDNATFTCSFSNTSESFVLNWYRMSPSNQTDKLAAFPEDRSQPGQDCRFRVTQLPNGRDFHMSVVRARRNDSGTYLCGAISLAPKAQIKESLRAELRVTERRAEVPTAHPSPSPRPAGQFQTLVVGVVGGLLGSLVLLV
Method: (§1) Antibodies or antibody-attenuated hIL-2 immunoconjugates (fusion proteins) were serially diluted six-fold in FACS buffer for an 8-point curve and added to human PD-1 expressing Jurkat cells for 1 hour on ice in 100 μL volume. Cells were washed and re-suspended in FACS buffer containing 1:40 dilution of Allophycocyanin conjugated anti-human IgG Fc monoclonal antibody. Cells were washed once more, re-suspended in FACS buffer containing 1:1000 dilution of Sytox Green (Thermo Fisher) and flow cytometric analysis was conducted on the BD FACS Canto II, BD Celesta or BD Fortessa (BD Biosciences) flow cytometers. The geometric mean fluorescent intensity (gMFI) was calculated using FlowJo software version 10. Half maximal effective concentration (EC₅₀) values were calculated from the gMFI of the Allophycocyanin signal across the titrated concentrations using GraphPad Prism 7 software.
(§2) The anti-PD-1 variable region sequences were expressed as human IgG4 kappa antibodies and were evaluated for the ability to bind to PD-1 expressing cells using flow cytometry as described in General Methods Protocol A. Antibodies to be tested were first screened for binding to human PD-1 using a Jurkat cell line expressing recombinant human PD-1 (Jurkat+hPD-1 cell line).

[3] = target: T1, human PD-1 (amino acids 1-185) stably …; test: flow cytometry, Jurkat+hPD-1 cells, APC anti-human IgG Fc, gMFI; no competitor
Method: Briefly, Jurkat cells stably expressing hPD-1 (as described in Protocol A above) were washed and re-suspended in FACS buffer containing 1:50 dilution of human FcR Blocking reagent. Cells were incubated at 4° C. for 10 minutes and washed. […] Cells were washed and incubated with test antibodies or antibody-attenuated hIL-2 fusion proteins serially diluted six-fold for an 8-point curve in 100 μL volume for one hour at 4° C. To detect bound test anti-hPD-1 antibodies or anti-hPD-1-attenuated hIL-2 fusion proteins, cells were washed again and incubated with 1:40 dilution of Allophycocyanin-conjugated anti-human IgG Fc monoclonal antibody for 45 minutes on ice. Cells were washed and re-suspended in FACS buffer containing 1:1000 dilution of Sytox Green (Thermo Fisher). […] Flow cytometry was carried out on the BD Canto II, BD Celesta, or BD Fortessa (BD Biosciences) flow cytometers and gMFI was calculated using FlowJo software version 10. EC₅₀ values were calculated from the gMFI of the Allophycocyanin signal across the titrated concentrations using GraphPad Prism 7 software.

[4] = target: T1, human PD-1 (amino acids 1-185) stably …; test: flow cytometry, Jurkat+hPD-1, multiple experiments
Method: as §1, §2

Sequence of human PD-1 on Jurkat Effector cells (Promega PD-1/PD-L1 blockade bioassay) (Q15116 25-288): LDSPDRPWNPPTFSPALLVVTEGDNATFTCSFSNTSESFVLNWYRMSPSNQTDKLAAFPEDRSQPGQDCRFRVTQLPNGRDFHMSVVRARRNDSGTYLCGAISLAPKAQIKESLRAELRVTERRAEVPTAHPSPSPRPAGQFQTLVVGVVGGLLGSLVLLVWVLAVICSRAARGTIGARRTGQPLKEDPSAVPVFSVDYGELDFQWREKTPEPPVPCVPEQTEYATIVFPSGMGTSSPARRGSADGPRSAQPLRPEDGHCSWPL

luminescence, hPD-1/hPD-L1 blockade bioassay [1] [RLU]	EC50 [2] [nM]	EC50 (read off the curve) [3] [nM]	EC50 [4] [nM]	Binder
~3000	3 to 16	–	–	OMC.2.C6-hIgG4 (antibody, V domains shown) VH: EVQLLESGGGLVQPGGSLRLSCTASGFTFSSYEMQWVRQAPGKGLEWVLGITSSSSHIFYADSVKGRFTVSRDNSKNTLYLQMNSLRAEDTAVYYCTKDLNSYYGLDVWGQGTTVTVSS VL: QSVMTQPPSASGTPGQRVTISCSGSTSNLGNNYVSWYQHLPGTAPKLLIYGNDQRPSGVPDRFSGSKSGTSASLAISGLQSDDEADYYCSSWDASLNVWVFGGGTKLTVLG
–	–	~3	–	C51E6-5-hIgG4 (antibody, V domains shown) VH: QVQLVQSGSELKKPGASVKVSCKASGYSLYGTSMHWVRQAPGQGLEWMGYISPFTGRATYAQGFTGRFVFSLDTSVSTAYLQISSLKAEDTAVYYCARDYDYRYYYAMDYWGQGTTVTVSS VL: EIVLTQSPDFQSVTPKEKVTITCTASESVPPQFLHWYQQKPDQSPKLLIYASRERASGVPSRFSGSGSGTDFTLTINSLEAEDAATYYCHQFHRSPLTFGGGTKLEIKR
~3000	3 to 16	–	–	OMC.1.D6-hIgG4 (antibody, V domains shown) VH: EVQLLESGGGLVQPGGSLRLSCAASGFTFSDYYMSWVRQAPGKGLEWVSAISSSGGTIFYADSVKGRFIISRDNSKNTLYLQMNSLRAEDTAVYYCAKHKWNDVYYDAMDVWGQGTTVTVSS VL: QSVLTQPPSASGTPGQRVTISCSGSNSNIGRNLVNWYQQLPGTAPKLLIYTVDQRPSGVPDRFSGSKSGTSASLAISGLASEDEADYYCAAWDSSLNSWVFGGGTKLTVLG

The remaining lines, values behind:

Binder	luminescence, hPD-1/hPD-L1 blockade bioassay [1] [RLU]	EC50 [2] [nM]	EC50 (read off the curve) [3] [nM]	EC50 [4] [nM]
OMC.1.B6-hIgG4 (antibody, V domains shown) VH: EVQLLESGGGLVQPGGSLRLSCAASGFTFSSNYMSWVRQAPGKGLEWVSAISSSGGTIFYADSVKGRFTISRDNSKNTLYLQMNSLRAEDTAVYYCAKHKWNAVYYDGMDVWGQGTTVTVSS VL: QSVLTQPPSASGTPGQRVTISCSGSNSNIGRNLVNWYQQLPGTAPKLLIYTIDQRPSGVPDRFSGSKSGTSASLVISGLQSEDEADYYCAAWDGSLNAWVFGGGTKLTVLG	~3000	3 to 16	–	–
A2-hIgG4 (antibody, V domains shown) VH: DVQLVESGGGLVQPGGSLRLSCAASGFTFDISAMSWVRQAPGKGLEWVSTISGSAYSTYYADSVKGRFTISRDNSKSTLYLQMNSLRAEDTAVYYCAREIFSDYWGLGTLVTVSS VL: QSVLTQPPSASGTPGQRVTISCSGSTSNIGRESVYWYQQLPGTAPKLLIYSNVQRPSGAPNRFSGSKSGTSASLAISGLQSEDEADYYCGTWDDSLNGWVFGGGTKLTVLG	–	3 to 16	–	–
2A3.H7-hIgG4 (antibody, V domains shown) VH: EVQLLESGGGLVQPGGSLRLSCAASGFTFKDYCMTWVRQAPGKGLEWVSAIVYSGGSTYYADSVKGRFTISRDNSKNTLYLQMNNLRAEDTAVYYCAKYTRASYFYDAMDVWGQGTTVTVSS VL: EIVLTQSPGTLSLSPGERATLSCRASQSIGRSFLAWYQQKPGQAPRLLIYDASTRAADIPARFSGSGSGTDFTLTISSLEPEDFAVYYCQQYYDWPPLSFGGGTKVEIKR	~3000	–	–	0.1 to 0.3
1H9-hIgG4 (antibody, V domains shown) VH: EVQLLESGGGLVQPGGSLRLSCVGSGFNLKDYCMTWVRQAPGKGLEWVSAIVYSGGSTYYADSVKGRFTISRDNSKNTLYLQMNSLRAEDTAVYYCAKYTRGSYFYDAMDVWGQGTTVTVSS VL: EIVLTQSPGTLSLSPGERATLSCRASQSIGRSFLAWYQQKPGQAPRLLIYDASTRAADIPDRFSGSGSGTDFTLTINRLEPEDFAVYYCQQYYDWPPLTFGGGTKVEIKR	~3000	–	–	0.1 to 0.3
1D5-hIgG4 (antibody, V domains shown) VH: EVQLLESGGGLVQPGGSLRLSCVGSGFNFKDYCMTWVRQAPGKGLEWVSAIVYSGGSTYYADSVKGRFTISRDNSKNTLYLQMNSLRAEDTAVYYCAKYTRGSYFYDAMDVWGQGTTVTVSS VL: EIVLTQSPGTLSLSPGERATLSCRASQSIGRSFLAWYQQKPGQAPRLLIYDASTRATDIPDRFSGSGSGTEFTLTISSLQSEDFAVYYCQQYYDWPPLTFGGGTKVEIKR	~3000	–	–	0.1 to 0.3
2H7-hIgG4 (antibody, human IgG4 kappa) heavy: not shown light: EIVLTQSPGTLSLSPGERATLSCRASQSIGKSFLAWYQQKPGQAPRLLIYDASTRAADIPARFSGSGSGTDFTLTISSLEPEDFAVYYCQQYYDWPPLSFGGGTKVEIKRTVAAPSVFIFPPSDEQLKSGTASVVCLLNNFYPREAKVQWKVDNALQSGNSQESVTEQDSKDSTYSLSSTLTLSKADYEKHKVYACEVTHQGLSSPVTKSFNRGEC	–	–	–	0.1 to 0.3
